Data reported in paper PMC5374410, “Identification of a Potent Allosteric Inhibitor of Human Protein Kinase CK2 by Bacterial Surface Display Library Screening” (Pharmaceuticals, 2017).

Target: CK2β^1–193-pAzF coupled to fluorescein (human) (UniProt P67870)
Assay: MST; B2 titrated (7.6 nM to 125 or 250 µM) to 100 nM fluorophore-labelled CK2α-DBCO-Sulfo-Cy5 or CK2β^1-193-Flu; 50 mM Tris/HCl pH 7.5, 25 mM NaCl, 20 mM MgCl2, Tween-20, DMSO; 37 °C, MST power 60%; Monolith NT.115; three independent measurements

## DCRGLIVMIKLH [peptide B2 (free synthetic peptide)]
  Kd: > 100 µM
